US20140087995A1 (published 2014)
Numbered stars: 1 amine (or outer) side, 2 acyl side, 3 side chain; on linkers, the order of the positions; unused ones are H or OH. Bridge positions count the residues as written; N and C are the ends. Side chains are listed from the residue outwards. Ends that are not written are not given here. * marks the point of attachment. C20 diacid = O=C(O)CCCCCCCCCCCCCCCCCCC(=O)*; γGlu = O=C(O)[C@H](CCC(=O)[*:2])N[*:1]; AEEA = NCCOCCOCC(=O)O

B1: N^ε1-[2-[2-[2-[[(4S)-4-carboxy-4-(19-carboxynonadecanoylamino)butanoyl]amino]ethoxy]ethoxy]acetyl]-[Arg17,Pro21,Pro27]-h-amylin (peptide)
peptide: K([AEEA-γGlu-C20 diacid])CNTATCATQRLANFLRHSSPNFGAIPSSTNVGSNTY-NH2
modifications: disulfide 2-7 (inferred)
notes: analogue of human amylin; also called compound 41
B2: N^ε1-19-carboxynonadecanoyl-[Arg17,Pro21,Pro27]-h-amylin (peptide)
peptide: K(C20 diacid)CNTATCATQRLANFLRHSSPNFGAIPSSTNVGSNTY-NH2
modifications: disulfide 2-7 (inferred)
notes: analogue of human amylin; also called compound 42
B3: N^ε1-[(4S)-4-carboxy-4-(19-carboxynonadecanoylamino)butanoyl]-[Arg17,Pro21,Pro27,Glu35]-h-amylin (peptide)
peptide: K([γGlu-C20 diacid])CNTATCATQRLANFLRHSSPNFGAIPSSTNVGSETY-NH2
modifications: disulfide 2-7; N-terminus assumed
SMILES: CC[C@H](C)[C@H](NC(=O)[C@H](C)NC(=O)CNC(=O)[C@H](Cc1ccccc1)NC(=O)[C@H](CC(N)=O)NC(=O)[C@@H]1CCCN1C(=O)[C@H](CO)NC(=O)[C@H](CO)NC(=O)[C@H](Cc1c[nH]cn1)NC(=O)[C@H](CCCNC(=N)N)NC(=O)[C@H](CC(C)C)NC(=O)[C@H](Cc1ccccc1)NC(=O)[C@H](CC(N)=O)NC(=O)[C@H](C)NC(=O)[C@H](CC(C)C)NC(=O)[C@H](CCCNC(=N)N)NC(=O)[C@H](CCC(N)=O)NC(=O)[C@@H](NC(=O)[C@H](C)NC(=O)[C@@H]1CSSC[C@H](NC(=O)[C@@H](N)CCCCNC(=O)CC[C@H](NC(=O)CCCCCCCCCCCCCCCCCCC(=O)O)C(=O)O)C(=O)N[C@@H](CC(N)=O)C(=O)N[C@@H]([C@@H](C)O)C(=O)N[C@@H](C)C(=O)N[C@@H]([C@@H](C)O)C(=O)N1)[C@@H](C)O)C(=O)N1CCC[C@H]1C(=O)N[C@@H](CO)C(=O)N[C@@H](CO)C(=O)N[C@H](C(=O)N[C@@H](CC(N)=O)C(=O)N[C@H](C(=O)NCC(=O)N[C@@H](CO)C(=O)N[C@@H](CCC(=O)O)C(=O)N[C@H](C(=O)N[C@@H](Cc1ccc(O)cc1)C(N)=O)[C@@H](C)O)C(C)C)[C@@H](C)O
notes: analogue of human amylin; also called compound 27
B4: N^ε1-[(4S)-4-carboxy-4-(19-carboxynonadecanoylamino)butanoyl]-[Glu14,Arg17,Pro21,Pro27,Arg35]-h-amylin (peptide)
peptide: K([γGlu-C20 diacid])CNTATCATQRLAEFLRHSSPNFGAIPSSTNVGSRTY-NH2
modifications: disulfide 2-7 (inferred)
notes: analogue of human amylin; also called compound 51
B5: N^ε1-[(4S)-4-carboxy-4-(19-carboxynonadecanoylamino)butanoyl]-[Arg17,Pro21,Pro27,Lys35]-h-amylin (peptide)
peptide: K([γGlu-C20 diacid])CNTATCATQRLANFLRHSSPNFGAIPSSTNVGSKTY-NH2
modifications: disulfide 2-7 (inferred)
notes: analogue of human amylin; also called compound 35
B6: N^ε1-[(4S)-4-carboxy-4-[[(4S)-4-carboxy-4-(19-carboxynonadecanoylamino)butanoyl]amino]butanoyl]-[Asp14,Arg17,Pro21,Pro26,Asp35]-h-amylin (peptide)
peptide: K([γGlu-γGlu-C20 diacid])CNTATCATQRLADFLRHSSPNFGAPLSSTNVGSDTY-NH2
modifications: disulfide 2-7 (inferred)
notes: analogue of human amylin; also called compound 1
B7: N^ε1-[(4S)-4-carboxy-4-[[(4S)-4-carboxy-4-(19-carboxynonadecanoylamino)butanoyl]amino]butanoyl]-[Asp14,Arg17,Pro22,Pro26,Asp35]-h-amylin (peptide)
peptide: K([γGlu-γGlu-C20 diacid])CNTATCATQRLADFLRHSSNPFGAPLSSTNVGSDTY-NH2
modifications: disulfide 2-7 (inferred)
notes: analogue of human amylin; also called compound 3
B8: N{Alpha-1}-[(4S)-4-carboxy-4-(19-carboxynonadecanoylamino)butanoyl]-[Glu14,Arg17,Pro21,Pro27,Lys34]-h-amylin (peptide)
peptide: {C20 diacid-γGlu}-KCNTATCATQRLAEFLRHSSPNFGAIPSSTNVGKNTY-NH2
modifications: disulfide 2-7 (inferred)
notes: analogue of human amylin; also called compound 36
B9: N^ε1-[(4S)-4-carboxy-4-[[(4S)-4-carboxy-4-(19-carboxynonadecanoylamino)butanoyl]amino]butanoyl]-[Asp14,Arg17,Pro21,Pro27,Asp35]-h-amylin (peptide)
peptide: K([γGlu-γGlu-C20 diacid])CNTATCATQRLADFLRHSSPNFGAIPSSTNVGSDTY-NH2
modifications: disulfide 2-7 (inferred)
notes: analogue of human amylin; also called compound 2
B10: N^ε-[(4S)-4-carboxy-4-(19-carboxynonadecanoylamino)butanoyl]Lys[Arg1,Arg17,Pro21,Pro27,His35]-h-amylin (peptide)
peptide: K([γGlu-C20 diacid])RCNTATCATQRLANFLRHSSPNFGAIPSSTNVGSHTY-NH2
modifications: disulfide 3-8 (inferred)
notes: analogue of human amylin extended by Lys at the N-terminus; also called compound 44
B11: N^-1-[(4S)-4-carboxy-4-(19-carboxynonadecanoylamino)butanoyl]-Gly[Arg1,Arg17,Pro21,Pro27]-h-amylin (peptide)
peptide: {C20 diacid-γGlu}-GRCNTATCATQRLANFLRHSSPNFGAIPSSTNVGSNTY-NH2
modifications: disulfide 3-8 (inferred)
notes: analogue of human amylin extended by Gly at the N-terminus; also called compound 46
B12: N^-1-[(4S)-4-carboxy-4-(19-carboxynonadecanoylamino)butanoyl]-Gly[Arg1,Arg17,Pro21,Pro27,His35]-h-amylin (peptide)
peptide: {C20 diacid-γGlu}-GRCNTATCATQRLANFLRHSSPNFGAIPSSTNVGSHTY-NH2
modifications: disulfide 3-8 (inferred)
notes: analogue of human amylin extended by Gly at the N-terminus; also called compound 47
B13: N^α1-[2-[2-[2-[[2-[2-[2-[[(4S)-4-carboxy-4-(19-carboxynonadecanoylamino)butanoyl]amino]ethoxy]ethoxy]acetyl]amino]ethoxy]ethoxy]acetyl]-[Arg17,Pro21,Pro27]-h-am … (peptide)
peptide: KCNTATCATQRLANFLRHSSPNFGAIPSSTNVGSNTY
modifications: C20 diacid-gGlu-2xOEG on the alpha amino group of the N-terminal residue (Lys 1); disulfide bridge between the two Cys residues; C-terminal amide
notes: analogue of human amylin; also called compound 24
B14: N^ε1-[2-[2-[2-(19-carboxynonadecanoylamino)ethoxy]ethoxy]acetyl]-[Arg17,Pro21,Pro27]-h-amylin (peptide)
peptide: K([AEEA-C20 diacid])CNTATCATQRLANFLRHSSPNFGAIPSSTNVGSNTY-NH2
modifications: disulfide 2-7 (inferred)
notes: analogue of human amylin; also called compound 43
B15: N^α1-[(4S)-4-carboxy-4-(19-carboxynonadecanoylamino)butanoyl]-[Glu14,Arg17,Pro21,Pro25,Pro28,Pro29]-h-amylin (peptide)
peptide: {C20 diacid-γGlu}-KCNTATCATQRLAEFLRHSSPNFGPILPPTNVGSNTY-NH2
modifications: disulfide 2-7 (inferred)
notes: analogue of human amylin; also called compound 6
B16: N^ε-[2-[2-[2-[[(4S)-4-carboxy-4-(19-carboxynonadecanoylamino)butanoyl]amino]ethoxy]ethoxy]acetyl]Lys[Arg1,Arg17,Pro21,Pro27,His35]-h-amylin (peptide)
peptide: K([AEEA-γGlu-C20 diacid])RCNTATCATQRLANFLRHSSPNFGAIPSSTNVGSHTY-NH2
modifications: disulfide 3-8 (inferred)
notes: analogue of human amylin extended by Lys at the N-terminus; also called compound 45

target: T1, rat amylin receptor (rat calcitonin receptor + rat RAMP 3) (rat, UniProt P32214 25-516; Q9JJ73 23-147); assay: SPA competition with 125I-rat amylin, membranes of BHK cells with rat calcitonin receptor + rat RAMP3 (Assay VI)
T1 construct: whole, on cells; membranes of transiently transfected BHK tk'ts 13 cells (Assay VI); also called rAmylin-R; rat amylin 3(a) receptor
T1 sequence (looked up) 1: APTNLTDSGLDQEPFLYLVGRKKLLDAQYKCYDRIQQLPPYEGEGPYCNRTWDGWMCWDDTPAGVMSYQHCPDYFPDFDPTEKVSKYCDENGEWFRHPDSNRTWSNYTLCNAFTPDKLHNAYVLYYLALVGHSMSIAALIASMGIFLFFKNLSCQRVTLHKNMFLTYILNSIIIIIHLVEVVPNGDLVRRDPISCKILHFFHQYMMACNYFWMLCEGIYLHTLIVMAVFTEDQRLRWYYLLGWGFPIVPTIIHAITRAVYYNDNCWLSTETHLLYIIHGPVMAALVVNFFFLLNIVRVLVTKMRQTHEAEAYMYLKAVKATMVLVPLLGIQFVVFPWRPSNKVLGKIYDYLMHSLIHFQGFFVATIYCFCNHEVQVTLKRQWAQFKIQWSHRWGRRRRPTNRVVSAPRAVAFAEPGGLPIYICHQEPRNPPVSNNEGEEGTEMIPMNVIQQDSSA
T1 sequence (looked up) 2: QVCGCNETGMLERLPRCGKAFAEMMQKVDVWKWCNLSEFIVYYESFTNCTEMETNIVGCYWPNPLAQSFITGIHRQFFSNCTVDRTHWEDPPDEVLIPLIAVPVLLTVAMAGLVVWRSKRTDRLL

Binder | IC50 [nM]
B1 | 1.37
B2 | 0.603
B3 | 0.614
B4 | 0.523
B5 | 0.948
B6 | 1.3
B7 | 1
B8 | 1.86
B9 | 0.295
B10 | 0.369
B11 | 0.33
B12 | 0.203
B13 | 3.01
B14 | 0.11
B15 | 2.37
B16 | 0.623

target: T2, rat calcitonin receptor (rat, UniProt P32214 25-516); assay: IC50 on rat calcitonin receptor divided by IC50 on rat amylin receptor (SPA competition)
T2 construct: whole, on cells; membranes of transiently transfected BHK tk'ts 13 cells (Assay VIII); also called rCTR; rat calcitonin (a) receptor
T2 sequence (looked up): T1 sequence (looked up) 1

Binder | Ratio rCT/rAmylin binding
B1 | 54
B2 | 25.4
B3 | 147
B4 | 119
B5 | 65.1
B6 | 104
B7 | 16.7
B8 | 32.4
B9 | 366
B10 | 53.3
B11 | 142
B12 | 84.3
B13 | 116
B14 | 69.1
B15 | 21.7
B16 | 67.1

target: T3, human calcitonin receptor (human, UniProt P30988 25-474); assay: IC50 on human calcitonin receptor divided by IC50 on human amylin receptor (SPA competition)
T3 construct: whole, on cells; membranes of stably transfected BHK cells (Assay VII); also called hCTR; hCT
T3 sequence (looked up): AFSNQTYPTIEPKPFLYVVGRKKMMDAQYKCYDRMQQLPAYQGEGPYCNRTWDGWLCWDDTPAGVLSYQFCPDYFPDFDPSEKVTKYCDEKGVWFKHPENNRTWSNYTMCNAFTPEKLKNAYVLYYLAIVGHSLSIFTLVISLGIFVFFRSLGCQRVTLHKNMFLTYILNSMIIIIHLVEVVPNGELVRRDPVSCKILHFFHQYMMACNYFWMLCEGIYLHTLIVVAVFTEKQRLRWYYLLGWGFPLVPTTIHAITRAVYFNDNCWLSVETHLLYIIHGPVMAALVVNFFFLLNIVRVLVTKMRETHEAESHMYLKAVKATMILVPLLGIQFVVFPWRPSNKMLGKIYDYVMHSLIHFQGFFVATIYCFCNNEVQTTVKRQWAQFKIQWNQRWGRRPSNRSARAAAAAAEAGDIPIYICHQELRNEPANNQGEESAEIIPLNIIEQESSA
Experimental: The resulting pellet was resuspended, homogenized and centrifuged (20.000 rpm, 15 min) in a buffer containing 20 mM Na-HEPES and 0.1 mM EDTA (pH 7.4, buffer 2). The resulting pellet was resuspended in buffer 2 and protein concentration was measured (BCA protein Assay, Pierce). The homogenate was kept cold during the whole procedure. The membranes were kept at −80° C. until use. The assay was performed in a 384 well Optiplate (PerkinElmer) in a total volume of 40 ul. Membranes were mixed with SPA beads. Final concentration of membranes 35 ng/μL final and SPA beads was 0.05 mg/well. Test-compounds were dissolved in DMSO and further diluted in assay buffer (50 mM Hepes, pH 7.4, 1 mM CaCl2, 5 mM MgCl₂, 0.1% OA and 0.02% Tween20). […] The final mixture was incubated with shaking at 400 rpm for 120 min at 25° C. prior to centrifugation (1500 rpm, 10 min). Samples were analyzed on TopCounter™ (Packard). The IC₅₀ was calculated using (one site binding competition analysis) GraphPad Prism5 as a measure of receptor affinity.
Membranes were prepared in the following way; the cells were rinsed with PBS and incubated with Versene for approximately 5 min before harvesting. The cells were flushed with PBS and the cell-suspension was centrifuged for 5 min at 1000 rpm. Cells were homogenized (Ultrathurrax) in a buffer containing 20 mM Na-HEPES and 10 mM EDTA (pH 7.4) and centrifuged at 20.000 rpm for 15 min. The resulting pellet was resuspended, homogenized and centrifuged (20.000 rpm, 15 min) in a buffer containing 20 mM Na-HEPES and 0.1 mM EDTA (pH 7.4, buffer 2). The resulting pellet was resuspended in buffer 2 and protein concentration was measured (BCA protein Assay, Pierce). The homogenate was kept cold during the whole procedure. The membranes were kept at −80° C. until use. Assay was performed in a 384 well Optiplate (PerkinElmer) in a total volume of 40 ul. Membranes were mixed with SPA beads.

Binder | Ratio hCT/hAmylin binding
B1 | 49.9
B2 | 30.7
B3 | 41.3
B4 | 37.5
B5 | 50.3
B6 | 27.6
B7 | 17.3
B8 | 15.7
B9 | 47.5
B10 | 17.7
B11 | 48.9
B12 | 44.9
B13 | 90
B14 | 34.7
B15 | 20
B16 | 26.8

target: T2, rat calcitonin receptor; assay: SPA competition with 125I-calcitonin, membranes of BHK cells with rat calcitonin receptor (Assay VIII)

Binder | IC50 [nM]
B1 | 74.1
B2 | 15.3
B3 | 90.2
B4 | 62
B5 | 61.7
B6 | 135
B7 | 16.7
B8 | 60.1
B9 | 108
B10 | 19.6
B11 | 46.8
B12 | 17.1
B13 | 350
B14 | 7.6
B15 | 51.5
B16 | 41.8
